# Reference: the supplement of paper PMC10567573
# B1: C1orf137 (parent)
# chain: LPQETNLTLKVCKPQAPQKLDPTL
# Variants of: B1
# Test: protein stability index of a GFP-peptide fusion (GPS, HEK-293T) (PSI 1-6); higher = more stable
# Settings: c terminus: a fixed tail appended
# 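Also: lentivirally expressed fusions sorted by FACS into six bins by GFP to DsRed ratio, PSI derived from sequencing read proportions per bin multiplied by bin number.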
row,Variant,protein stability index
1,P17C,3.51
2,P17R,3.17
3,P17M,3.68
4,P17N,3.21
5,P17D,4.52
6,P17H,3.58
7,P17V,3.95
8,P17K,4.13
9,P17W,2.3
10,P17G,3.74
11,P17I,4
12,P17L,3.07
13,P17Y,3.57
14,P17A,3.97
15,P17T,3.81
16,P17Q,4.36
17,P17F,3.03
18,P17S,3.62
19,P17E,4.27
20,K19S,3.72
21,K19E,3.77
22,K19V,4.06
23,K19I,2.54
24,K19R,3.55

row,Variant,protein stability index
1,K19G,3.5
2,K19W,2.36
3,K19L,3.01
4,K19T,4.06
5,K19D,3.92
6,K19Y,3.36
7,K19M,3.53
8,K19C,2.92
9,K19P,3.96
10,K19H,3.78
11,K19F,2.96
12,K19Q,3.85
13,K19A,3.8
14,K19N,3.56
15,P14E,4.71
16,P14L,2.81
17,P14N,4.72
18,P14A,3.59
19,P14I,2.76
20,P14G,4.55
21,P14V,3.55
22,P14W,3.47
23,P14D,4.76
24,P14K,4.1

row,Variant,protein stability index
1,P14R,4.27
2,P14S,4.27
3,P14Q,4.41
4,P14T,4.16
5,P14C,3.02
6,P14H,4.07
7,P14M,3.08
8,P14Y,3.37
9,P14F,2.71
10,V11Y,3.82
11,V11Q,3.32
12,V11R,3.05
13,V11L,3.55
14,V11G,3.42
15,V11A,4.12
16,V11M,3.77
17,V11C,3.96
18,V11F,3.22
19,V11I,3.24
20,V11E,5.09
21,V11N,4.21
22,V11H,4.08
23,V11D,4.91
24,V11P,4.54

row,Variant,protein stability index
1,V11K,3.65
2,V11W,2.44
3,V11T,3.66
4,V11S,4.19
5,D21I,2.74
6,D21Q,3.19
7,D21P,3.35
8,D21R,3.19
9,D21S,3.85
10,D21C,3.05
11,D21N,3.17
12,D21H,2.86
13,D21F,2.66
14,D21T,3.7
15,D21E,3.98
16,D21K,3.77
17,D21G,3.3
18,D21M,2.86
19,D21A,2.65
20,D21L,2.44
21,D21V,2.87
22,L7H,4.51
23,L7K,4.61
24,L7T,4.33

row,Variant,protein stability index
1,L7F,2.92
2,L7G,4.48
3,L7R,4.67
4,L7S,4.35
5,L7D,4.94
6,L7Y,3.89
7,L7P,4.42
8,L7Q,4.56
9,L7C,3.53
10,L7N,4.66
11,L7V,4.21
12,L7M,4.25
13,L7I,3.4
14,L7E,4.79
15,L7A,4.25
16,Q18G,3.59
17,Q18N,3.52
18,Q18R,3.8
19,Q18A,4.65
20,Q18I,3.92
21,Q18H,3.69
22,Q18L,3.31
23,Q18K,3.97
24,Q18E,3.23

row,Variant,protein stability index
1,Q18M,3.28
2,Q18S,3.58
3,Q18D,4.59
4,Q18C,3.79
5,Q18Y,3.13
6,Q18P,3.75
7,Q18V,3.56
8,Q18T,3.82
9,Q18F,2.39
10,E4N,3.94
11,E4G,3.36
12,E4V,3.03
13,E4F,2.44
14,E4C,2.37
15,E4K,3.46
16,E4M,2.82
17,E4H,3.08
18,E4L,2.6
19,E4Q,3.74
20,E4S,3.12
21,E4R,2.64
22,E4P,4.22
23,E4W,2.32
24,E4D,3.7

row,Variant,protein stability index
1,E4I,2.51
2,E4T,3.59
3,E4Y,2.98
4,T8I,2.37
5,T8F,2.9
6,T8V,2.92
7,T8N,4.11
8,T8M,3.69
9,T8D,3.21
10,T8K,3.57
11,T8P,4.53
12,T8W,2.64
13,T8E,4.14
14,T8C,4.15
15,T8L,3.95
16,T8A,4.3
17,T8S,4.3
18,T8H,3.88
19,T8Q,4.21
20,T8G,4.55
21,T8R,3.57
22,T8Y,2.98
23,Q15H,3.65
24,Q15K,3.69

row,Variant,protein stability index
1,Q15M,3.28
2,Q15C,3.58
3,Q15I,3.03
4,Q15T,4.08
5,Q15G,3.93
6,Q15A,3.91
7,Q15Y,2.64
8,Q15W,3.5
9,Q15D,4.49
10,Q15F,2.69
11,Q15L,2.96
12,Q15S,3.86
13,Q15E,4.41
14,Q15V,3.65
15,Q15N,4.04
16,Q15R,3.69
17,A16G,3.98
18,A16K,4.15
19,A16Q,3.96
20,A16L,3.69
21,A16D,4.41
22,A16F,2.92
23,A16R,3.58
24,A16N,4.04

row,Variant,protein stability index
1,A16H,4.14
2,A16Y,3.38
3,A16V,3.94
4,A16S,4.02
5,A16T,4.07
6,A16M,3.54
7,A16P,3.62
8,A16I,3.56
9,A16E,4.45
10,A16W,2.02
11,A16C,3.6
12,K10T,3.46
13,K10I,2.13
14,K10C,3.66
15,K10Q,3.65
16,K10W,2.17
17,K10E,4.5
18,K10Y,2.98
19,K10M,2.95
20,K10R,3.03
21,K10G,3.78
22,K10S,4.01
23,K10A,4.61
24,K10P,4.17

row,Variant,protein stability index
1,K10F,2.18
2,K10H,3.48
3,K10V,2.7
4,K10N,4.37
5,K10L,2.55
6,K10D,4.56
7,L20K,4.9
8,L20A,4.75
9,L20D,4.98
10,L20W,3.51
11,L20N,4.29
12,L20I,3.42
13,L20V,4.03
14,L20S,4.34
15,L20C,4.18
16,L20H,4.43
17,L20Y,4.46
18,L20M,4.13
19,L20G,4.91
20,L20F,3.31
21,L20P,4.48
22,L20R,4.42
23,L20T,4.5
24,L20Q,4.47

row,Variant,protein stability index
1,L20E,5.09
2,L9K,4.16
3,L9T,4.67
4,L9E,4.76
5,L9Y,4.35
6,L9V,4.14
7,L9N,4.54
8,L9P,3.69
9,L9D,4.92
10,L9S,3.63
11,L9C,3.91
12,L9H,3.78
13,L9I,4
14,L9M,4.03
15,L9Q,4.59
16,L9R,4.58
17,L9G,4.32
18,L9A,4.14
19,L9W,3.15
20,L9F,4.05
21,C12P,4.73
22,C12W,4.28
23,C12M,4.07
24,C12Y,3.64

row,Variant,protein stability index
1,C12S,4.07
2,C12G,4.81
3,C12Q,4.1
4,C12E,4.39
5,C12A,5.06
6,C12D,4.79
7,C12R,4.14
8,C12L,4.06
9,C12I,3.9
10,C12K,4.43
11,C12F,3.7
12,C12V,3.65
13,C12T,4.62
14,C12N,4.31
15,C12H,4.66
16,N6H,4.23
17,N6K,3.27
18,N6L,3.57
19,N6S,3.56
20,N6F,3.36
21,N6I,2.42
22,N6C,3.3
23,N6W,3.2
24,N6Q,3.94

row,Variant,protein stability index
1,N6Y,2.99
2,N6D,4.38
3,N6G,4.6
4,N6V,3.29
5,N6A,3.88
6,N6T,3.71
7,N6M,3.22
8,N6R,3.31
9,N6E,4.15
10,K13A,3.98
11,K13M,3.05
12,K13P,4.43
13,K13C,3.24
14,K13G,4.33
15,K13W,2.25
16,K13H,3.56
17,K13R,3.01
18,K13D,4.88
19,K13N,4.03
20,K13F,2.11
21,K13I,2.33
22,K13Q,4.14
23,K13S,4.14
24,K13L,2.96

row,Variant,protein stability index
1,K13T,4.06
2,K13Y,3.5
3,K13V,3.42
4,K13E,4.69
5,T5N,3.69
6,T5A,4.02
7,T5F,2.77
8,T5L,2.69
9,T5H,4
10,T5C,2.99
11,T5Y,2.88
12,T5G,3.75
13,T5M,3.58
14,T5D,4.38
15,T5P,4.59
16,T5K,3.64
17,T5I,2.6
18,T5Q,4.33
19,T5E,4.2
20,T5V,3.04
21,T5R,3.6
22,T5S,3.9
